The RNAGym collection of RNA variant scans (doi:10.1073/pnas.2313332121)

B1: TPR t1 (parent)
chain: GACCAAUCUGCCCUCAGAGCUCGAGAACAUCUUCGGAUGCAGAGGAGGCAGGCUUCGGUGGCGCGAUAGCGCCAACGUCCUCAACCUCCAAUGCAUCCCACCACAUGAUGAUGCCUGAAGAGCCUUGGUUUUUUG

Variants of: B1
Assay: polymerase ribozyme fitness, log enrichment relative to wild type (log ratio); higher = more active; in vitro selection for triplet polymerase activity
How it was run: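 Fitness compares each genotype's enrichment to that of the wild type on a logarithmic scale, averaging replicates with inverse-variance weights. The logarithm is base 2. Enrichment came from Illumina sequencing of input and output libraries after one triplicate round of in vitro selection, which included frozen incubation at −7 °C, of PCR-built, transcribed mutant libraries of each subunit of a heterodimeric triplet polymerase ribozyme. Only genotypes with ≥10 input reads and ≥1 read per output were kept.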

Row | Variant | polymerase ribozyme fitness (log ratio)
1 | G10A C13A C94U U131A | -1.56
2 | U9G G93A G128A U129G | -1.96
3 | G10A C22U | -4.59
4 | G10A A43G C76U C89U A111C | -4
5 | G10A A74C U78A A111G | -0.232
6 | U9G G113U | -1.66
7 | U9G G113C | -1.34
8 | G10A C11U C40U C97A G120A | -4.4
9 | G10A A29U G110A | -2.97
10 | U9G G63U G128C | -3.23
11 | U9G U21A G127A | -0.983
12 | G10A A43G A119U | -1.73
13 | G10A C13U C15U C79A A100U C124G U131G | -0.0361
14 | G10A C13A G39C U133A | -1.46
15 | U9G G47C C80U | -3.21
16 | G10A A29G | -2.58
17 | U9G G93C A100U A118G | -1.35
18 | U9G G39A C86U G110U | -2.18
19 | G10A C13U | 0.219
20 | G10A C11G A27U G60A U78G C82A G93A A105G U109G | -6.59
21 | U9G G61A C97U A100C A108G | -2.88

Row | Variant | polymerase ribozyme fitness (log ratio)
22 | G10A C82A A95U | -0.318
23 | U9G U54A G69C U129C | -2.97
24 | G10A C53U G63U | -0.334
25 | G10A C11G C12U U96C C104U C123G U131G | 2.08
26 | G10A A74G A119U | -0.71
27 | G10A C34U G77A | -5.24
28 | U9G G51C C56G C80G A119U | -0.301
29 | G10A C11U C89A | -2.04
30 | U9G U59C C101U | -0.449
31 | U9G G61U C70U C82U C115U C123A | -3.33
32 | G10A C15U G47A U112A C124A G127C | -1.98
33 | G10A A41C C56U U78G C82U | -1.79
34 | U9G G63A U92G C98G C115G G128A | -6.12
35 | G10A C11U C13U C62A C79A U106C G122A | -3.29
36 | G10A A29G G113A U130A | -3.73
37 | G10A C22G G61U A95U | -3.63
38 | U9G G107U | -3.93
39 | G10A C53A C72U | 0.298
40 | U9G G63U | -0.815
41 | U9G G61A C76G | -4.18
42 | G10A C11G G71A | -0.829

Row | Variant | polymerase ribozyme fitness (log ratio)
43 | G10A C64U A103U C123U | -3.16
44 | U9G G52U C82U | -1.33
45 | U9G G51U G63C | -3.1
46 | U9G G51A | -1.96
47 | U9G G71A | -0.592
48 | U9G G39A C64U G93C C94G | -4.56
49 | U9G G69U G107U | -2.73
50 | U9G G120U | 1.06
51 | G10A C64U | -0.954
52 | G10A C13A C22A A46G C49A G122A | -6.21
53 | G10A C13A A18G | -6.95
54 | G10A C34A C40U G71C G77U C88A G113A | -6.08
55 | U9G G45C C79A U130C | -2.2
56 | U9G G65C A121U | -4.76
57 | G10A C12U U14C C56G G63C G117U U129A | -3.92
58 | U9G U54G U81A U125A G128U | -3.65
59 | U9G G77A | 0.17
60 | G10A C11A A18C G42C G44A C101A | -4.26
61 | U9G G71A C80U C98U G110U | -6.92
62 | U9G G47A C76A C82G U116A | -2.05
63 | U9G G45A A46C U106C | -0.292

Row | Variant | polymerase ribozyme fitness (log ratio)
64 | U9G U78C C79G G110A | -2.65
65 | G10A A43G | -1.53
66 | G10A A41U | -0.89
67 | G10A C62U | 0.124
68 | G10A C62A | -0.929
69 | G10A A37U G117U U133A | -4.32
70 | U9G U116A | -0.815
71 | G10A A18U A118U | -1.34
72 | G10A A37C A84C A95G | -0.834
73 | U9G G110U | -1.36
74 | U9G G110A | -0.713
75 | U9G U54A C56A G71A | -2.22
76 | U9G G48A A111G | 0.633
77 | G10A C49G G63U | -0.848
78 | G10A C56U C94G | -0.664
79 | G10A C13U U55A C76U C97A U116G | -6.1
80 | G10A A29U G69U A83U C114G C123G | -2.26
81 | U9G U32C G52C | -0.471
82 | U9G U92A U96G U109A | -5.59
83 | U9G U32C U59A U131A | -0.0228
84 | U9G U109C | -3.57
